The record followed here is article PMC8939299, “Molecular characterization of a novel GSTO2 of Fasciola hepatica and its roles in modulating murine macrophages” (Parasite, 2022).

The subject of the data set is O=C1O[C@H]([C@@H](O)CO)C(=O)C1=O. In words: purified protein. The conditions noted are these: 1 mM GSH fixed, DHA 0-0.25 mM (Figure 3 legend: 0-2.5 mM), potassium phosphate, pH 7.5, 25 °C.

The term Km denotes the concentration of substrate that gives half-maximal velocity. Regarding rGSTO2 (Fasciola hepatica), the Km worked out at 287 µM.
